Among the data in article PMC2856910 are fold enhancement of binding against β-cat alone values, retold here.

For the assay, the target named is β-cat bound to cadherin (in vitro binding studies, unpublished data) (UniProt Q02248).
UniProt Q02248, sequence (Q02248 whole entry, chain 1 of 2): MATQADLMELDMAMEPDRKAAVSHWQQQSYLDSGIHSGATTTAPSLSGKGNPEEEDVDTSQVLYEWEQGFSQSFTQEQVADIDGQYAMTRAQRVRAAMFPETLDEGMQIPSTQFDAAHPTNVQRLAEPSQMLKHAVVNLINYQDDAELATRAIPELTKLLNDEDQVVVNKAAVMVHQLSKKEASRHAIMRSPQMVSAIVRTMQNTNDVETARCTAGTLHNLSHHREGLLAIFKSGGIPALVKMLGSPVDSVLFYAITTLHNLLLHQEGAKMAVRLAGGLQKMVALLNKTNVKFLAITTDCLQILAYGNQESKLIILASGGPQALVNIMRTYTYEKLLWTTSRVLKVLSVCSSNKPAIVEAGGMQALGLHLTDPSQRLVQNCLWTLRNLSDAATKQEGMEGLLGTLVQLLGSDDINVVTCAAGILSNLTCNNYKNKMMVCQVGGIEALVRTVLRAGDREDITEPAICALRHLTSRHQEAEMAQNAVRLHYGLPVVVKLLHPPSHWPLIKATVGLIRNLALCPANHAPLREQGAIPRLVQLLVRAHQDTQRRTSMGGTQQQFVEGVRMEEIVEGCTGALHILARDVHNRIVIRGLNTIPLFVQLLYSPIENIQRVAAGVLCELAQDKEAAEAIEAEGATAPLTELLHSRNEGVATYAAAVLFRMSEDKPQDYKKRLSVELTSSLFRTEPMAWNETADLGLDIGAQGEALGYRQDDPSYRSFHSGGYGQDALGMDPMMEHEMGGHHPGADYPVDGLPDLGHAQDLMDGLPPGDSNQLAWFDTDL
UniProt Q02248, sequence (P09803 24-884, chain 2 of 2, further chain): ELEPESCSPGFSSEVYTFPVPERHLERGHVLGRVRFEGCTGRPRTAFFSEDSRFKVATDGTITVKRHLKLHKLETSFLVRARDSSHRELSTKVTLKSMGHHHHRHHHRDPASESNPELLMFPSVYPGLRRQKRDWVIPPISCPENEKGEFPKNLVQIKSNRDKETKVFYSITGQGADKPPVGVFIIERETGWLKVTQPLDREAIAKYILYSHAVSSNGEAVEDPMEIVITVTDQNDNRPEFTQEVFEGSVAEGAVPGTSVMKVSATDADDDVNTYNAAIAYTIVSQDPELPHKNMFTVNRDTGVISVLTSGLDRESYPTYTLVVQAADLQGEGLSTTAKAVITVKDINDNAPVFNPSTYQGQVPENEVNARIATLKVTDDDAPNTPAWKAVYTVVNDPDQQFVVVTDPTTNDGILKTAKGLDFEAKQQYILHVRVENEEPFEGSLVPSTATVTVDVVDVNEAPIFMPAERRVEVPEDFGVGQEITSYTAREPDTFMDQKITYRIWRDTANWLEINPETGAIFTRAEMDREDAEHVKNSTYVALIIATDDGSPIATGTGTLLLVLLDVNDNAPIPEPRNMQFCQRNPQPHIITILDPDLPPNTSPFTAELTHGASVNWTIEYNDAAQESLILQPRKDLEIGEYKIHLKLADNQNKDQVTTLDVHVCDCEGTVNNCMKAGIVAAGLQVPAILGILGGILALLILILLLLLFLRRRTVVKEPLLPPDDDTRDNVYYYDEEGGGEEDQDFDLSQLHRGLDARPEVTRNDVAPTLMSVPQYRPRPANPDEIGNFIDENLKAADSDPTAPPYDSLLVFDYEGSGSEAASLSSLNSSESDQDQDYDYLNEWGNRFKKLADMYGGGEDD

With “α-catenin (in vitro binding studies, unpublished data) (from UniProt P26231 1-906) (natural protein)”, the fold enhancement of binding against β-cat alone was more than 10 fold.
